From publication PMC9884874 (Journal for Immunotherapy of Cancer, 2023)

Legend:
tumor = details: single agent or in combination with anti-PD-1 ab, mouse models; cited from earlier work
[1] = tested on: mouse bone-marrow-derived macrophages (BMDM); test: uptake of pHrodo-labeled apoptotic thymocytes by BMDM; assay type: cell-based; details: pHrodo-labeled apoptotic thymocytes as target cells
Ccn1 = Ccn1 mRNA level in cells; assay type: cell-based, mouse
BMDM = test: recombinant CCN1 treatment of BMDM, CD206+ frequency; assay type: cell-based, mouse
mouse peritoneal MQ = details: 100 µg/mL CCN1, direct exposure; cited from earlier work
CD8+ T cells = CD8+ T cells co-cultured with MC38 CCM-educated MQ or DC; assay type: cell-based, mouse

Molecule: COc1cc2nccc(Oc3ccc(NC(=O)c4cn(C(C)C)c(=O)n(-c5ccc(F)cc5)c4=O)cc3F)c2cc1OC [RXDX-106]
- tumor-growth-inhibitory effects (tumor): excellent tumor-growth-inhibitory effects

Molecule: CCOc1ccn(-c2ccc(F)cc2)c(=O)c1C(=O)Nc1ccc(Oc2ccnc(N)c2Cl)c(F)c1 [BMS-777607]
- tumor-growth-inhibitory effects (tumor): excellent tumor-growth-inhibitory effects

Molecule: CCCCNc1ncc(-c2ccc(CN3CCOCC3)cn2)c(NC2CCC(O)CC2)n1 (stereo not drawn) [UNC2250]
- ability of phagocytosis in BMDM [1]: significantly decreased
- mRNA level of Ccn1 in BMDM primed with MC38 culture media (Ccn1): could not decrease

B1: CCN1: recombinant CCN1, a secreted matricellular protein, added to macrophages (protein, UniProt O00622 25-381, looked up)
CCN family member 1: TCPAACHCPLEAPKCAPGVGLVRDGCGCCKVCAKQLNEDCSKTQPCDHTKGLECNFGASSTALKGICRAQSEGRPCEYNSRIYQNGESFQPNCKHQCTCIDGAVGCIPLCPQELSLPNLGCPNPRLVKVTGQCCEEWVCDEDSIKDPMEDQDGLLGKELGFDASEVELTRNNELIAVGKGSSLKRLPVFGMEPRILYNPLQGQKCIVQTTSWSQCSKTCGTGISTRVTNDNPECRLVKETRICEVRPCGQPVYSSLKKGKKCSKTKKSPEPVRFTYAGCLSVKKYRPKYCGSCVDGRCCTPQLTRTVKMRFRCEDGETFSKNVMMIQSCKCNYNCPHANEAAFPFYRLFNDIHKFRD
- frequency of M2-skewed MQ (BMDM; 10–500 ng/mL CCN1): increases
- frequency of CD206+ BMDM (BMDM; recombinant CCN1, concentration-dependent and in presence of MC38 CCM): increased
- differentiation into M1-skewing MQ producing pro-inflammatory cytokines (mouse peritoneal MQ): promotes differentiation into M1-skewing MQ
- effect of CCN1 addition on KRCT87-mediated immune-boosting effects (CD8+ T cells; CCN1 addition to DC): could not nullify
- effect of CCN1 addition on KRCT87-elevated granzyme B, IFN-γ, TNF-α production (CD8+ T cells; MQ educated by MC38-CCM): completely reversed
